From the supplement of paper PMC7877785
± gives the uncertainty stated by the source.

Assay: self-splicing fitness, log relative to wild type (ln ratio); higher = more splicing; Tetrahymena group I intron in knt gene, E. coli kanamycin selection, DiMSum; sequences stand for … in CUCUCU…GGAGGGAAAAGUUAUCAGGCAUGCACCUGGUAGCUAGUCUUUAAACCAAUAGAUUGCAUCGGUUUAAAAGGCAAGACCGUCAAAUUGCGGGAAAGGGGUCAACAGCCGUUCAGUACCAAGUCUCAGGGGAAACUUUGAGAUGGCCUUGCAAAGGGUAUGGUAAUAAGCUGACGGACAUGGUCCUAACCACGCAGCCAAGUCCUAAGUCAACAGAUCUUCUGUUGAUAUGGAUGCAGUUCACAGACUAAAUGUCGGUCGGGGAAGAUGUAUUCUUCUCAUAAGAUAUAGUCGGACCUCUCCUUAAUGGGAGCUAGCGGAUGAAGUGAUGCAACACUGGAGCCGCUGGGAACUAAUUUGUAUGCGAAAGUAUAUUGAUUAGUUUUGGAGUACUCGUGGUCG
Method in brief: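 The eight P1ex-region nucleotides of an intron in the knt kanamycin-resistance gene on pET-22b(+) were all randomised and the library put into E. coli BL21(DE3). Six replicate transformations were grown overnight at 37°C or 30°C on LB agar with or without 25 μg/mL kanamycin, together with 100 μg/mL carbenicillin, 50 μM IPTG and 0.2% rhamnose. Colonies were pooled and amplicon-sequenced on an Illumina HiSeq 2500. Fitness from DiMSum is the error-weighted combination of wild-type-normalised replicate fold changes, kanamycin over none.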

GUUGAGCAAUAUUACGGGAA
self-splicing fitness (ln) (30 °C): -3.4 ± 0.23 | self-splicing fitness (ln) (37 °C): -2.39 ± 0.23

CUCCAGCAAUAUUACGUUGG
self-splicing fitness (ln) (30 °C): -3.68 ± 0.19 | self-splicing fitness (ln) (37 °C): -2.49 ± 0.21

ACAGAGCAAUAUUACGUUUC
self-splicing fitness (ln) (37 °C): -2.31 ± 0.39

CAUCAGCAAUAUUACGUCUG
self-splicing fitness (ln) (30 °C): -0.675 ± 0.047 | self-splicing fitness (ln) (37 °C): 0.264 ± 0.059

UAUCAGCAAUAUUACGGUGA
self-splicing fitness (ln) (30 °C): -0.121 ± 0.054 | self-splicing fitness (ln) (37 °C): -0.19 ± 0.065

GGCGAGCAAUAUUACGCUUG
self-splicing fitness (ln) (37 °C): -2.71 ± 0.48

UACUAGCAAUAUUACGCUAA
self-splicing fitness (ln) (30 °C): -1.31 ± 0.14 | self-splicing fitness (ln) (37 °C): -0.697 ± 0.1

UUGAAGCAAUAUUACGCAAU
self-splicing fitness (ln) (30 °C): -2.4 ± 0.21 | self-splicing fitness (ln) (37 °C): -2.02 ± 0.16

CGCCAGCAAUAUUACGUACC
self-splicing fitness (ln) (30 °C): -3.78 ± 0.29 | self-splicing fitness (ln) (37 °C): -2.74 ± 0.3

GAGUAGCAAUAUUACGUGAC
self-splicing fitness (ln) (30 °C): -1.42 ± 0.22 | self-splicing fitness (ln) (37 °C): -1.89 ± 0.39

AUGGAGCAAUAUUACGUUUG
self-splicing fitness (ln) (30 °C): -3.38 ± 0.29 | self-splicing fitness (ln) (37 °C): -2.58 ± 0.36

ACGGAGCAAUAUUACGGUAC
self-splicing fitness (ln) (30 °C): -4.95 ± 0.36 | self-splicing fitness (ln) (37 °C): -2.3 ± 0.22

GGCGAGCAAUAUUACGAGGU
self-splicing fitness (ln) (30 °C): -3.57 ± 0.36 | self-splicing fitness (ln) (37 °C): -0.907 ± 0.22

AGUAAGCAAUAUUACGCAGG
self-splicing fitness (ln) (30 °C): -3.42 ± 0.23 | self-splicing fitness (ln) (37 °C): -1.43 ± 0.2

UCGCAGCAAUAUUACGGCUU
self-splicing fitness (ln) (30 °C): -1.16 ± 0.08 | self-splicing fitness (ln) (37 °C): 0.404 ± 0.12

GAGCAGCAAUAUUACGGCGG
self-splicing fitness (ln) (30 °C): -2.18 ± 0.11 | self-splicing fitness (ln) (37 °C): -1.77 ± 0.16

GGCAAGCAAUAUUACGUAAC
self-splicing fitness (ln) (30 °C): -0.613 ± 0.064 | self-splicing fitness (ln) (37 °C): -0.533 ± 0.089

AAUCAGCAAUAUUACGGCAG
self-splicing fitness (ln) (30 °C): -1 ± 0.095 | self-splicing fitness (ln) (37 °C): -1.32 ± 0.11

GAUGAGCAAUAUUACGAUAC
self-splicing fitness (ln) (30 °C): -3.7 ± 0.38 | self-splicing fitness (ln) (37 °C): -0.654 ± 0.2

ACCUAGCAAUAUUACGUUAU
self-splicing fitness (ln) (30 °C): -2.43 ± 0.11 | self-splicing fitness (ln) (37 °C): -1.53 ± 0.11

GGCCAGCAAUAUUACGGUGU
self-splicing fitness (ln) (30 °C): -0.779 ± 0.058 | self-splicing fitness (ln) (37 °C): -0.114 ± 0.07

GGGUAGCAAUAUUACGAGCU
self-splicing fitness (ln) (30 °C): -0.974 ± 0.17 | self-splicing fitness (ln) (37 °C): -1.33 ± 0.19

UCUGAGCAAUAUUACGUGAC
self-splicing fitness (ln) (30 °C): -2.99 ± 0.2 | self-splicing fitness (ln) (37 °C): -2.97 ± 0.27

ACGGAGCAAUAUUACGAUUG
self-splicing fitness (ln) (30 °C): -3.04 ± 0.25 | self-splicing fitness (ln) (37 °C): -1.43 ± 0.22

CCCCAGCAAUAUUACGGGCG
self-splicing fitness (ln) (30 °C): -3.69 ± 0.15 | self-splicing fitness (ln) (37 °C): -1.94 ± 0.11

ACACAGCAAUAUUACGUAAA
self-splicing fitness (ln) (30 °C): -3.49 ± 0.15 | self-splicing fitness (ln) (37 °C): -1.2 ± 0.12

GCGAAGCAAUAUUACGCUCU
self-splicing fitness (ln) (30 °C): -1.7 ± 0.24 | self-splicing fitness (ln) (37 °C): -1.49 ± 0.38

GCAAAGCAAUAUUACGAGUC
self-splicing fitness (ln) (30 °C): -1.41 ± 0.14 | self-splicing fitness (ln) (37 °C): -2.6 ± 0.19

UGCUAGCAAUAUUACGGCUC
self-splicing fitness (ln) (30 °C): -1.4 ± 0.2 | self-splicing fitness (ln) (37 °C): -1.33 ± 0.23

GGCAAGCAAUAUUACGAAAC
self-splicing fitness (ln) (30 °C): -0.925 ± 0.13 | self-splicing fitness (ln) (37 °C): -0.903 ± 0.16

CACCAGCAAUAUUACGGCAA
self-splicing fitness (ln) (30 °C): -1.68 ± 0.099 | self-splicing fitness (ln) (37 °C): -0.956 ± 0.1

GAUAAGCAAUAUUACGGGCC
self-splicing fitness (ln) (30 °C): -1.48 ± 0.17 | self-splicing fitness (ln) (37 °C): -1.13 ± 0.18

GGUAAGCAAUAUUACGGGAG
self-splicing fitness (ln) (37 °C): -2.88 ± 0.34

GGUGAGCAAUAUUACGCGAU
self-splicing fitness (ln) (30 °C): -3.7 ± 0.46

AACAAGCAAUAUUACGCGUC
self-splicing fitness (ln) (30 °C): -3.84 ± 0.2 | self-splicing fitness (ln) (37 °C): -2.66 ± 0.15

GCUGAGCAAUAUUACGUAGA
self-splicing fitness (ln) (30 °C): -2.41 ± 0.2 | self-splicing fitness (ln) (37 °C): -0.888 ± 0.21

GACUAGCAAUAUUACGAGUU
self-splicing fitness (ln) (30 °C): -4.75 ± 0.32 | self-splicing fitness (ln) (37 °C): -2.74 ± 0.3

UGUCAGCAAUAUUACGCGUG
self-splicing fitness (ln) (30 °C): 0.623 ± 0.069 | self-splicing fitness (ln) (37 °C): 0.117 ± 0.098

UUCCAGCAAUAUUACGACGG
self-splicing fitness (ln) (30 °C): -2.74 ± 0.32 | self-splicing fitness (ln) (37 °C): -1.98 ± 0.29

CGAUAGCAAUAUUACGACGG
self-splicing fitness (ln) (30 °C): 0.185 ± 0.098 | self-splicing fitness (ln) (37 °C): 0.424 ± 0.14

CCCGAGCAAUAUUACGAACA
self-splicing fitness (ln) (30 °C): -2.93 ± 0.3 | self-splicing fitness (ln) (37 °C): -2.51 ± 0.35

GCGCAGCAAUAUUACGGGGA
self-splicing fitness (ln) (30 °C): -2.23 ± 0.14 | self-splicing fitness (ln) (37 °C): -0.687 ± 0.11

AUCGAGCAAUAUUACGGUAG
self-splicing fitness (ln) (37 °C): -1.93 ± 0.27
